Experimental data from patent US20070081975A1.

Target: recombinant human IL-18 (human) (UniProt Q14116)
Assay: cell-based or functional assay

recombinant human IL-18 (human), sequence (Q14116 37-193 limits assumed): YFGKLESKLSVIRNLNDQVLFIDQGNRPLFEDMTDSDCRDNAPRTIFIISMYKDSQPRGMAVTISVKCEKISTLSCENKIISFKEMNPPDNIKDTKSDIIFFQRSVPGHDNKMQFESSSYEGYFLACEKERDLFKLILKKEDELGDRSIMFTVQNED

| IFN-γ (ng/ml); bioassay with human IL-18 (20 ng/ml), LPS (2 µg/ml) and murine splenocytes (control 7.5) [ng/mL] | Substance |
| --- | --- |
| 0 | His6-tagged IL-18BPa transiently expressed in COS7 cells (IL-18BP-His6) (from UniProt O95998 31-194) |
| 0 | PNGase-treated IL-18BP-His6 (deglycosylated IL-18BPa-His6) (from UniProt O95998 31-194) |
